IntAct's records for PubMed 21708944

B1: Chromosomal replication initiator protein DnaA (Escherichia coli (strain K12)), P03004 (parent)
chain: MSLSLWQQCLARLQDELPATEFSMWIRPLQAELSDNTLALYAPNRFVLDWVRDKYLNNINGLLTSFCGADAPQLRFEVGTKPVTQTPQAAVTSNVAAPAQVAQTQPQRAAPSTRSGWDNVPAPAEPTYRSNVNVKHTFDNFVEGKSNQLARAAARQVADNPGGAYNPLFLYGGTGLGKTHLLHAVGNGIMARKPNAKVVYMHSERFVQDMVKALQNNAIEEFKRYYRSVDALLIDDIQFFANKERSQEEFFHTFNALLEGNQQIILTSDRYPKEINGVEDRLKSRFGWGLTVAIEPPELETRVAILMKKADENDIRLPGEVAFFIAKRLRSNVRELEGALNRVIANANFTGRAITIDFVREALRDLLALQEKLVTIDNIQKTVAEYYKIKVADLLSKRRSRSVARPRQMAMALAKELTNHSLPEIGDAFGGRDHTTVLHACRKIEQLREESHDIKEDFSNLIRTLSS
partner: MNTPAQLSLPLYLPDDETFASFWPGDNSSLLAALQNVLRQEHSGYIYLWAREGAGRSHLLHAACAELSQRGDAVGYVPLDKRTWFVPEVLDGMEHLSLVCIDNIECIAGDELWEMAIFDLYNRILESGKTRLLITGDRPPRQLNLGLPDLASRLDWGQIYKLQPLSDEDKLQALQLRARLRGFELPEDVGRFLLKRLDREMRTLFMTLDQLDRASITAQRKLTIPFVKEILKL

Variants of: B1
Conditions: with hda_ecoli hda

Row | effect of a mutation on the interaction | Variant
1 | decreasing interaction | MSLSLWQQCLARLQDELPATEFSMWIRPLQAELSDNTLALYAPNRFVLDWVRDKYLNNINGLLTSFCGADAPQLRFEVGTKPVTQTPQAAVTSNVAAPAQVAQTQPQRAAPSTRSGWDNVPAPAEPTYRSNVNVKHTFDNFVEGKSNQLARAAARQVADNPGGAYNPLFLYGGTGLGKTHLLHAVGNGIMARKPNAKVVYMHSERFVQDMVKALQNNAIEEFKRYYRSVDALLIDDIQFFANKERSQEEFFHTFNALLEGNQQIILTSDRYPKEINGVEDRLKSRFGWGLTVAIEPPELETRVAILMKKADENDIRLPGEVAFFIAKRLRSNVRELEGALNRVIANANFTGRAITIDFVREALRDLLALQEKLVTIDNIQKTVAEYYKIKVADLLSKRRSRSVARPRQMAMALAKELTNHSLAEIGDAFGGRDHTTVLHACRKIEQLREESHDIKEDFSNLIRTLSS [P423A]
2 | decreasing interaction | MSLSLWQQCLARLQDELPATEFSMWIRPLQAELSDNTLALYAPNRFVLDWVRDKYLNNINGLLTSFCGADAPQLRFEVGTKPVTQTPQAAVTSNVAAPAQVAQTQPQRAAPSTRSGWDNVPAPAEPTYRSNVNVKHTFDNFVEGKSNQLARAAARQVADNPGGAYNPLFLYGGTGLGKTHLLHAVGNGIMARKPNAKVVYMHSERFVQDMVKALQNNAIEEFKRYYRSVDALLIDDIQFFANKERSQEEFFHTFNALLEGNQQIILTSDRYPKEINGVEDRLKSRFGWGLTVAIEPPELETRVAILMKKADENDIRLPGEVAFFIAKRLRSNVRELEGALNRVIANANFTGRAITIDFVREALRDLLALQEKLVTIDNIQKTVAEYYKIKVADLLSKRRSRSVARPRQMAMALAKELTNHSGPEIGDAFGGRDHTTVLHACRKIEQLREESHDIKEDFSNLIRTLSS [L422G]
3 | decreasing interaction | MSLSLWQQCLARLQDELPATEFSMWIRPLQAELSDNTLALYAPNRFVLDWVRDKYLNNINGLLTSFCGADAPQLRFEVGTKPVTQTPQAAVTSNVAAPAQVAQTQPQRAAPSTRSGWDNVPAPAEPTYRSNVNVKHTFDNFVEGKSNQLARAAARQVADNPGGAYNPLFLYGGTGLGKTHLLHAVGNGIMARKPNAKVVYMHSERFVQDMVKALQNNAIEEFKRYYRSVDALLIDDIQFFANKERSQEEFFHTFNALLEGNQQIILTSDRYPKEINGVEDRLKSRFGWGLTVAIEPPELETRVAILMKKADENDIRLPGEVAFFIAKRLRSNVRELEGALNRVIANANFTGRAITIDFVREALRDLLALQEKLVTIDNIQKTVAEYYKIKVADLLSKRRSRSVARPRQMAMALAKELTNHSAPEIGDAFGGRDHTTVLHACRKIEQLREESHDIKEDFSNLIRTLSS [L422A]
